T1: Corticotropin-releasing hormone (CRH)
T1 construct: 41-amino acid peptide derived from a 196-amino acid preprohormone (Genbank EAW86897.1); also called CRF; CRF peptide
T1 peptide: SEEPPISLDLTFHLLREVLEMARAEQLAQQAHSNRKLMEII


Assays:
[1] = biological target: T1, Corticotropin-releasing hormone (CRH); test: direct CRH ELISA with lysate of transfected HEK 293t cells
Method: ScFv constructs offer the advantage of being able to be delivered to the brain via AAV vectors. DNA constructs for ScFv's composed of the heavy and light variable regions of Antibody A and Antibody B, connected by a linker peptide, were generated. The amino acid sequences of the Antibody A and Antibody B scFvs are set forth in SEQ ID NOs: 22 and 23, respectively. DNA constructs were then transfected into Human Embryonic Kidney (HEK) 293t cells and incubated 48 hours. Cells were then lysed and analyzed for CRH binding via a direct CRH ELISA.

[2] = biological target: T1, Corticotropin-releasing hormone (CRH); test: method not stated (FIG. 2, affinity of monoclonal antibodies to CRH)
[3] = biological target: T1, Corticotropin-releasing hormone (CRH); test: Octet red BLI, CRF peptide against Antibody B at 300 nM to 0.412 nM; kdis(1/s), same value printed in all seven rows of the table [upper table, CRF peptide]
[4] = biological target: T1, Corticotropin-releasing hormone (CRH); test: Octet red BLI, CRF peptide against Antibody B at 300 nM to 0.412 nM; same value printed in all seven rows of the table [upper table, CRF peptide]

Binder	binding result [1]	Kd [2]	koff [3]	Kd [4]	kon [4]
ScFv comprising the heavy and light variable regions of Antibody A (scFv, also called Antibody A scFv) scFv: DGVQCEVKLVESGGGLVKPGGSLKLSCAASGFTFSSYAMSWVRQTPEKRLEWVASISIGGSTYYRDSVKGRCTISRDNAKNILYLQMRSLRSEDTAMYYCARRGMDYWGQGTSVTVSSGGGGSGGGGSGGGGSDIVITQDELSNPVTSGESVSISCRSSKSLLYKDGKTYLNWFLQRPGQSPQLLIYLMSTRASGVSDRFSGSGSGTDFTLEISRVKAEDVGVYYCQQLVEYPLTFGAGTKLELKRASGHHHHHHGSDYKDDDDK	binds	–	–	–	–
ScFv comprising the heavy and light variable regions of Antibody B (scFv, also called Antibody B scFv) scFv: DEVQLQQSGPELVKPGVSMKISCKASGYSFTDSTMNWVKQSHGKNLEWIGLIHPDNGGTIYNQKFKGKATLTVHKSSSTAYMELLSLTSEDSAVYYCANGFAYWGQGTLVTVSAAKTTPPSVYPLAPGSAAGGGGSGGGGSGGGGSDVVMTQTPLSLPVSLGDQASISCRSSQSLLHSNGNTYLHWYLQKPGQSPELLIYKVSNRFSGVPDRFSGSGSGTDFTLKISRVEAEDLGVYFCSQSTHVPLTFGAGTKLELKGSHHHHHHGSDYKDDDDK	binds	–	–	–	–

More lines, now with the values ahead:

binding result [1]	Kd [2]	koff [3]	Kd [4]	kon [4]	Binder
–	< 0.001 nM	–	–	–	anti-CRH antibody A (antibody, V domains shown, Mouse monoclonal antibody raised with Peptide A (CRH 1-15)) VH: EVKLVESGGGLVKPGGSLKLSCAASGFTFSSYAMSWVRQTPEKRLEWVASISIGGSTYYRDSVKGRCTISRDNAKNILYLQMRSLRSEDTAMYYCARRGMDYWGQGTSVTVSS VL: DIVITQDELSNPVTSGESVSISCRSSKSLLYKDGKTYLNWFLQRPGQSPQLLIYLMSTRASGVSDRFSGSGSGTDFTLEISRVKAEDVGVYYCQQLVEYPLTFGAGTKLELK
–	20.9 nM	< 1e-07 s⁻¹	< 1 pM	97500 M⁻¹ s⁻¹	anti-CRH antibody B (antibody, V domains shown, Mouse monoclonal antibody raised with Peptide B (CRH 1-21), purified (QED bio); It was detected with anti-mouse IgG-HRP, and mouse IgG1 served as isotype control in vivo) VH: EVQLQQSGPELVKPGVSMKISCKASGYSFTDSTMNWVKQSHGKNLEWIGLIHPDNGGTIYNQKFKGKATLTVHKSSSTAYMELLSLTSEDSAVYYCANGFAYWGQGTLVTVSA VL: DVVMTQTPLSLPVSLGDQASISCRSSQSLLHSNGNTYLHWYLQKPGQSPELLIYKVSNRFSGVPDRFSGSGSGTDFTLKISRVEAEDLGVYFCSQSTHVPLTFGAGTKLELK

— US20210371514A1 (UNIVERSITY OF FLORIDA RESEARCH FOUNDATION, published 2021)
